This data set in a line: yeast display, Sf9 membrane polyspecificity reagent, FACS + sequencing; frameworks hold sequencing errors. An outline of the steps:
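Genes from sorted yeast were amplified by colony PCR, read by MiSeq 2 × 250 sequencing and filtered on CDR length. These cells carried a synthetic nanobody library in Saccharomyces cerevisiae BJ5465 and were sorted by FACS into low and high (top ~1%) gates on anti-HA and streptavidin fluorescence. Polyreactivity is labelled according to the gate of origin.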
Consider “QVQLVASGGGLVQAGGSLRLSCAASGSISFYNAMGWYRQAPGKERELVAAINRSGGSTNYADSVKGLFTISRDNGKNTVYLQMNSLKPEDTAVYYCAAVSSKGNRHVYDYWGQGTQVTGSS”, for which the “polyreactivity (PSR sort gate)” value is given as “low polyreactivity”.
As to “QVQLVESGGGLVQAGGSLRLSCAASGRTFDHNAMGWYRQAPGKERELVAAITWSGGITDYADSVKRPFTISRDNAKNTVYLQMNSLKPEDTAVWGQGTQVTVSS”, the “polyreactivity (PSR sort gate)” value is given as “low polyreactivity”.
Consider “QVQLVESGGGLVQAGGSLRLSCADSGLIFQYYVMVWYRQAQGKERELVAAISARGGGTYYADSVKGRFTISRDNAKNTVYLPMNSLKPEVTAVYYCAAHQVYAGPGYDYWGQGTQVTVSS”, for which the “polyreactivity (PSR sort gate)” value was “high polyreactivity”.
For “QVQLVESGGGLVQAGGSLRLSCDASGIILNINAMGWYRQAPGKERELVAAITSDGSTNYADSVKGRFTISRDNAKNTVYLQMNSLKPEDTAVYYCAVDLPWGTGVSQYPESDYWGQGTQVTVSS” the value was “low polyreactivity”.
Under “QVQLVESGAGLVQAGVSLRLSCAASGRTFRSNAMGWYRQAPGKERELVAAISWSGGSTYYADSVKGRFTISRDNAKNTVYLQMNSLKPEDTAVYDCAVGGSGYGRFGGGYARDYWGQGTLVTVSS” stands “high polyreactivity”; under “QVQLVESGGGLVQAGGSLRLSCAASGSTFDRNAMGWYRQAPGKERELVAAINWRGGSTYYADSVKGRFTISRDNAKNTVYLQMNSLKPEDTAVYYCAKRQYSSDGRGFGYWGQVTQVTVSS”, “high polyreactivity”; under “QVQLVESGGGLDQAGGSLRLSCAASGRIIYWYAMGWFRQAPGKERELVAAINNGGGTNYADSVKGRFTISRDNAKHTVYLQMNSLKPEDTAVYYCAADYVFYSRFFTEVYWGQGTQVTVSS”, “low polyreactivity”.
Take “QVQLVESGGGLVQAGGSLRLSCAASGSTFYNYAMGWYRQEPGKERELVAAINYSGGDTYYADSVKGRFTISRDNAKNTVYLQMNSLKPEDNAVYYCNAEWDYYSSNPVQNDYDYWGQGTQVTVSS”: the “polyreactivity (PSR sort gate)” value is reported as “high polyreactivity”.
“QDQLVESVGGLVQAGGSLRLSCAASGRTLVRYVMGWYRQAPGKERELVAAISARTGSTYYADSVKGRFTISRDNAKNTVYLQMNSLKPEDTAVYYCATKFSSYDTRVSYDYWGQGTQVTVSS”: the “polyreactivity (PSR sort gate)” value is recorded as “low polyreactivity”.
For “QVQLVESGGGLVQAGGSLRLSCAASGSTYYNAMGWYRQAPGKERELVAAIRFRYGSTYYADSVKGRFTISRDNAKNSVYLQMNSLKPEDTAVYYCADDNKRSWRYAYNYWGHGTQVTVSS” the value was “high polyreactivity”; for “QVQLVESGGGLVQAGGSLRLSCAASGFIFNRYTMGWYRQAPGKERELVAAITGRGGSTYYADSVKGRFSISRDNAKNTVYLQMNSLKPEDTAVYYCAAAPAYRYASYTYGYDSWGQGTQVTVSS”, “high polyreactivity”.
In the case of “QVQLVESAVGLVQAGGSLRLSCAASGRIFYFNAMGWYRQAPGKERELVAAISSSGTTYYADSVKGRFTISRDNAKNTVYLQMNSLKPEDTAVYYCAAGYYGHDPRNRYRYNYWGQGTQVTVSS”, the “polyreactivity (PSR sort gate)” value is listed as “high polyreactivity”.
For “QVQLVESGGGLVQAGGSLRLSCAASGSIFDPYAMGWYRQAPGKEREFVAAISWSGGSTYYADSVKGRFTISRDNAKNTVYLQMNSLIPEDTAVYYCAAGTQWYSQVYIYYYWGQGTQVTVSS” the value was “low polyreactivity”.
As for “QVQLVESGGGLVQAGGSLRLSCAASGRIFQYYTMGWYRQAPGKERELVAAITWSSSRTYYADSVKGRVTISRDNAKNTVYLQMNSLKPEDTAVNYCAAEAQAAWNDYTYWGQGTQVTVSS”, the “polyreactivity (PSR sort gate)” value is given as “high polyreactivity”.
For “QVQLVESGGGLVQAGGSLRLSSAASGSIFYYYSMGWYRQAPGKERELVAAITRSGGSTYYADSVKGLFTISRDNAKNTVYLQMNSQKPEDTAVYYCAKDAHAYRDLDYWGQGTQVTVSS” the value was “low polyreactivity”.
Under “QVQLVESGGGLVQAGGSLRLSCAASGFTFGRYAMGWYRQAPGKERELVAAINYTDGSTYYADSVKGRFTISRDNAKNTVYLQMNSLKPEDTAGYYCAATTLSFEGGKYWSKYDYWGQGTQVTVSS” stands “low polyreactivity”.
For “QVQLVESGGGFVQAGGSLLVSCAASGFTFRYSAMGWYRQAPGKERELVAAIDQNSGRTYYADSGKGRFTISRDNAKNTVYLQMNSLKPEDTAVYYCNVGYPKVPAGSYDYWGQGTQVTVSS” the value was “high polyreactivity”.
In the case of “QVQLVESGGGLVQAGGSLRLSCAASGSTIYAYAMGWYRQAPGKERELVAAIDSGGSTYYADSVKGRFTISRDNAKNTVYLQMNSLKPEDTAVYYCAVRHRYTRAYWGRDYWGQGTQVTVSS”, the “polyreactivity (PSR sort gate)” value was “low polyreactivity”.
“QVQLQVSGGDLVQAGGSLRLSCAASGTIYGLISMGWYRQAPGKEREFVAAITDGGNTNYADSVKGRFTISRDNAKYTVYLQMISLKPEDTAVYYCAVLFSDDAYYAYWGQGTQVTVSS”: the “polyreactivity (PSR sort gate)” value was “low polyreactivity”.
Take “QVQLVESGGGLVQAGGSLRLSCAASGRIFSTYVMGWYRQAPGKERELVAAIRNNGGSTYYADSVKGRFTISRDNAKNTVYLQMNSLKPEDTAVYFCAKKSFFTGRWWYDYWGQGTQVTVSS”: the “polyreactivity (PSR sort gate)” value is “high polyreactivity”.
For “QVQLVESGGGLVQAGGSLRVSCAASGRIFTQYATGWYRQAPAKEREMVAAINASDGSTYADSVKGRFTISRDNAKNSVYVQMNSLNPEDSAVYYCNVTGGPYDFTRWSDFDHWGQGTQVTVSS” the value was “low polyreactivity”; for “QVQLVESGGGLVQAGGSLRLSCAASGSTFTGYAMGWYRQAPGNEREFVAAISRRGGSTYYADSVKGRFTISRDNAKNTVYLQMNSLKPEDTAVYYCAARGVGGTVPTRYDYWGQGTQVTVSS”, “high polyreactivity”.
Under “QVQLVESGGGLVQAGGSLRLICAASGYIFRDYAMGWYRQAPGKERELVATISSGGSTSYADSVKGRFTISRDNAKNTVYLQMNSLKPEDTAVYYCAADVANTSAEYYYWGQGTQVTVSS” stands “low polyreactivity”; under “QVQLVESGGGLVQAGGSLRLSCAASGLIFKDYAMGWYRQAPGKERELVAAISSSGGSTYYADSVKGRFTISRDNAKNTVYLQMNSLKPEDTAVYYCAARSFRYYSDYGYWGQGTQVTVSS”, “high polyreactivity”.
Under “QVQLVDSGGGLVQEGGSLRLSCAASGSIFLIYAMGWYRQAPGKERELVAAITGGGTTNYADSVKGRFTISRDNAKNTVYLQMNSLKPEDTAVYYCNTLYLVYLYWTSPTPSDLFDYWGQGTQVTVSS” stands “low polyreactivity”; under “QVQLVESGGGLVQAGGSLRLSCAASGSTFVWYDMGWYRQAPGKERELVATITSGGITTYADSVKGRFTISRDNAKNTVYLQMNSPKPEDTAVYYCNADLYYWLRYYDRNEYRGQGTQVTVSS”, “low polyreactivity”.
Regarding “QVQLVESGGGLVQAGGSLRLSCAASGRIFLLNAMGWYRQAPGKERELVARISSGRTYYADSVKGRFTISRDNAKNTVYLQMNSLKPEDTAVYYCNATVSSSKYRYFYVNPYDYWGQGTQVTVSS”, the “polyreactivity (PSR sort gate)” value was “low polyreactivity”.
For “QVQLVESGGGLVQAGGSLRLSCAASGLTFFGNAMGWYRQAPGKERELVATISSGGGTSYADSVKGRFTISRDNAKNTVYLQMNSLKPEDTAVYFCAAEIVEEFDYWGQGTQVTVSS” the value was “low polyreactivity”.
For “QVQLVETGGGLVQAGVSLRLSCAASGRTWGYDMGWYRQAPGKERELVAAIRNGASTYYADSVKGRFTISRDNAKNTVYLQMNSLKPEDTAVYYCAADYTVRVVATYDYWGQGTQVTVSS” the value was “low polyreactivity”; for “QVQLVESGGGLVQAGGSLRLSCCASGFTFIVYSMGWYRQSPGKERELVAAITQSGGSTFYADSVKGRFTISRDNAKNTVYLQMNSLKPEDTAVYYCNAYRKFRYWGQGTQVTVSS”, “low polyreactivity”; for “QVQHVESGGGLVQAGGSLRLSCAASGFTFYSYVMGWYRQAPGKERELVAAITRGGSTYYADSVKGRFTISRDNAKNTVYLQMTSLKPEDTAVYYCAKRPSYGYNYWGHGTQVTVSS”, “low polyreactivity”.
For the sequence “QVQRVESGGGLVQAGCSLRLSCAATGSTFRDYTMGGYRQEPGKERELVADITWRSGRTYYADSVMGRFTISRDYAMNTVYLQMNSLKPEDTAVYYCAAATRVKVNGLYSYYYRYDYWGLGTQVTVSS”, the “polyreactivity (PSR sort gate)” value was “high polyreactivity”.
For “QVELVESGGGLVQAGGSLRISCDASGSTFRWYAMGWYRQGPGKERELVAAINRSGGSTYYADSVKGRFTISRDNAKNTVYLQMNSLKPEDTAVYYCEARWYSSSRWYKYNYWGQGTQVTVSS” the value was “high polyreactivity”; for “QVQLVESGGGLVQAGGSLRLSCAASGIFFNYMGWYRQAPGKEREFVAAIDYRGGNTFYADSVKGRFTISRDNAKNTVYLQMNSLKPEDTAVYYCARAFGQRRYDYWGQGTQVTVSS”, “high polyreactivity”; for “QVQLVESGGGLVQAGGSLRLSCAASGSIFVGYTMGWYRQAPGKERELVADITYNGGTTYYADSVKGRFTISRDNAKNTVYLQMNSLKPEDSAVYYCAADYYYGWFPVYYWGQGTQVTVSS”, “high polyreactivity”.
Regarding “QVQLVESGGGLVQAGGRLRLSCAASGFIFRAYAMGWYRQAPGKERELVAAISRGGGTYYADSVKGRFTISRDNAKNTVYLQMNSLKPEDTAVYYCAVDLLRRGFTTVVTTYDYWGQGTQVTVSS”, the “polyreactivity (PSR sort gate)” value is “high polyreactivity”.
For the sequence “QVQLVESGGGLVQAGGSLRLSCAASGRIFRGNAMGWYRQAPGKEREMVAAISRRSGSTYYADSVKGRFTISRDNAKNTVYLQMNSLKPEDTAVYYCAATSSLGDFRYDYWGQVTQVTVSS”, the “polyreactivity (PSR sort gate)” value is recorded as “high polyreactivity”.
Consider “QVQLVESGGGLVQAGGSLRLSCAASGSIFVIYAMGWYRQAPGKERELVAAITWNGGSTFYADSVKGRFTISRDNAKNTVYLQMNSLKPEDTAVYYCNAVAVSNSGWEYDYWGQGTQVTVSS”, for which the “polyreactivity (PSR sort gate)” value is recorded as “low polyreactivity”.
Turning to “QVQLVESGGGLVQSGGSLRLSCAASGSILYGYAMGWYRQAPGKERELVAAIRWTGGSTYYADSVKGRFTISRDNAKNTVYLQMNSLKPEDTAVYFCAAEYNLRTYWGDYWGQGTQVTVSS”, the “polyreactivity (PSR sort gate)” value was “low polyreactivity”.
Consider “QVQLVESGGGLVQAGGSLRLSCAPSGFTFYKNAMGWYRQAPGKERELVAAITSSGGSTYYADSVKGRFTISRDNAKNTVYLQMNSLKPEDTAVYYCAAYPQAYIADYDYWGQGTQVTVSS”, for which the “polyreactivity (PSR sort gate)” value is given as “low polyreactivity”.
For “QDQLVESGGGLVQAGGSLRLSCAASGSTFRPYAMGWSRQAPGKERELVAAITTGGSTNYADSVKGRFTISRDNAKNTVYLQMNSLKPEDTAVYYCNADYDVLNWGYYDWGYDYWGHGTQVTVSS” the value was “low polyreactivity”.

The values are drawn from the nanobody polyreactivity screen of Harvey et al. (2022).
